Data published in patent publication US20200247855A1, “THERAPY AND DIAGNOSTICS” (OXFORD UNIVERSITY INNOVATION LIMITED, priority 2017, published 2020).

B1: P672_RHIPU: tick CKBP, Rhipicephalus pulchellus (protein, listed as Rhipicephalus pulchellus)
chain: VCEVSEQEGVGEDNATEDEDYEDFFKPVTCYFANSTVGPLRPPNCTVVCTNNTAWWNDTKSDGGHCYSEYRPEKRTHSREIYNCTIGVCGNGTCIANHTYADCW
B2: EVASIN4: previously described tick CKBP evasin 4, from Rhipicephalus sanguineus (protein, listed as Rhipicephalus sanguineus)
chain: EVPQMTSSSAPDLEEEDDYTAYAPLTCYFTNSTLGLLAPPNCSVLCNSTTTWFNETSPNNASCLLTVDFLTQDAILQENQPYNCSVGHCDNGTCAGPPRHAQCW

How the values were obtained:
[1] = target: T1, CCL8_HUMAN (Homo sapiens, UniProt P80075); conditions: Eaton, J. R. O. et al., JBC [2018], cited from earlier work
T1 sequence (P80075 24-99): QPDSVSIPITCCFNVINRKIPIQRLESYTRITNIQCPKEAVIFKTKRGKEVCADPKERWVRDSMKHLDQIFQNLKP

[2] = test system: leucocyte recruitment to the zymosan air-pouch; assay: Zymosan subcutaneous dorsal air-pouch inflammation model; format: in vivo; conditions: 5 mg/kg, exudate at 24 hours, mouse
Description: Zymosan or PBS (control) was injected into the air-pouch (a.p.) on day 6. Peptide or protein (blue) was injected into the air-pouch on day 6 at the time of zymosan injection and repeated 9 hours later. Air-pouch exudate was collected and analysed on day 7 by flow cytometry (FC).
G. Experimental design to assess efficacy of intraperitoneally administered peptide. This is identical to that used for locally administered peptide (above) except that peptide or protein was administered intraperitoneally (i.p.).
C57BL/6J male mice (25-30 g, 8-10-week-old) were obtained from Charles River (UK). They were group housed in temperature and humidity-controlled rooms, kept on a 12-hr light-dark cycle, and provided with food and water ad libitum. Air pouches were established at the dorsal side of the mice as described (Duarte, D. B. et al., Curr Protoc Pharmacol [2016]). […] Total numbers of leucocytes, neutrophils, monocytes, T-cells and eosinophils were counted using an Attune N×T flow cytometer following staining with cell specific antibodies. […]
To characterize the inflammatory subsets in the pouch, multi-colour fluorescence cell staining was conducted using the combination of the following antibodies for various immune cells. […] Data were analysed using FlowJo by an observer blinded to the treatment received. […]

[3] = target: CCL13_HUMAN (Homo sapiens, UniProt Q99616); conditions: data obtained from publications [20-22,32]; cited from earlier work
Sequence of CCL13_HUMAN (Q99616 17-98): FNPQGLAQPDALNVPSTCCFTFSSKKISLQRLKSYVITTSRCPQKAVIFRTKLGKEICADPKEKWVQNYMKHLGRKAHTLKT

[4] = target: T2, CCL3_HUMAN (Homo sapiens, UniProt P10147); conditions: read-out: Kd, CCL3_HUMAN, previously described evasins; data obtained from publications [20-22,32]; cited from earlier work
T2 sequence (P10147 24-92): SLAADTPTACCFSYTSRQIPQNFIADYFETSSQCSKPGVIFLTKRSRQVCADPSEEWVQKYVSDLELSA

[5] = target: CCL11_HUMAN (Homo sapiens, UniProt P51671); conditions: read-out: Kd, CCL11_HUMAN, previously described evasins; data obtained from publications [20-22,32]; cited from earlier work
Sequence of CCL11_HUMAN (P51671 24-97): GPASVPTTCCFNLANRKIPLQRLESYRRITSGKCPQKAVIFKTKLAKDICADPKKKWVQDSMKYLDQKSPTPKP

[6] = target: T3, CCL25_HUMAN (Homo sapiens, UniProt O15444); conditions: read-out: Kd, CCL25_HUMAN, previously described evasins; data obtained from publications [20-22,32]; cited from earlier work
T3 sequence (O15444 24-150): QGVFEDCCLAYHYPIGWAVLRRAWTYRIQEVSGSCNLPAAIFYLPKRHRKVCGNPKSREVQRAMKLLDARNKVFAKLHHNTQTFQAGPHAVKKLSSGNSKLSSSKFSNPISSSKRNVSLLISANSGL

Molecule | Residency time (RT) of P672:CCL8 interaction [1] | Kd ([1]; read-out: Kd of P672:CCL8 interaction) | Number of neutrophils, eosinophils, monocytes and T-cells recruited to the air-pouch, local administration ([2]; injected into the air-pouch at 0 and 9 h) | Number of neutrophils, eosinophils, monocytes and T-cells recruited to the air-pouch, intraperitoneal administration ([2]; injected intraperitoneally at 0 and 9 h) | Kd, CCL13_HUMAN, previously described evasins [3] | Kd [4] | Kd [5] | Kd [6]
B1 | 27 min | 8.5 nM | strong and significant reduction | substantial and significant reduction |  |  |  | 
B2 |  |  |  |  | No Binding | 0.06 nM | 0.34 nM | 69.6 nM
